According to patent US20190142860A1, “NUCLEIC ACID BASED TIA-1 INHIBITORS” (Aquinnah Pharmaceuticals, Inc., priority 2015, published 2019):

How the values were obtained:
[1] = target: Nucleolysin TIA-1 (endogenous mouse TIA1) (mouse) (UniProt P52912); assay: TIA1 IP-MS, WT1 cortex
[2] = target: Nucleolysin TIA-1 (endogenous mouse TIA1) (mouse) (UniProt P52912); assay: TIA1 IP-MS, WT2 cortex
[3] = target: Nucleolysin TIA-1 (endogenous mouse TIA1) (mouse) (UniProt P52912); assay: TIA1 IP-MS, WT3 cortex
[4] = target: Nucleolysin TIA-1 (endogenous mouse TIA1) (mouse) (UniProt P52912); assay: TIA1 IP-MS, tau KO 1 cortex
[5] = target: Nucleolysin TIA-1 (endogenous mouse TIA1) (mouse) (UniProt P52912); assay: TIA1 IP-MS, tau KO 2 cortex
[6] = target: Nucleolysin TIA-1 (endogenous mouse TIA1) (mouse) (UniProt P52912); assay: TIA1 IP-MS, tau KO 3 cortex

UniProt P52912, sequence (P52912 whole entry): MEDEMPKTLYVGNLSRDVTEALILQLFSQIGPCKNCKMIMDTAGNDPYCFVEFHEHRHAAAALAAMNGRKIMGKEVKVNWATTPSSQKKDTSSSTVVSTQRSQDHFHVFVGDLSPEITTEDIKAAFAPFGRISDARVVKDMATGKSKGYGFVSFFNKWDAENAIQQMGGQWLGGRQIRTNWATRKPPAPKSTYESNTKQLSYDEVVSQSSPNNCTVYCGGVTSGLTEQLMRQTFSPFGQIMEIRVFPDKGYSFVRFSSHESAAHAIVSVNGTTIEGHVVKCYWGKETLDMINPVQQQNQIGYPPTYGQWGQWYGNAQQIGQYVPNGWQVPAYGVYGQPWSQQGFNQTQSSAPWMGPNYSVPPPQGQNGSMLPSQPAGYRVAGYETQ

Substance	total ion current (normalized to TIA1 = 1000) [1]	total ion current (normalized to TIA1 = 1000) [2]	total ion current (normalized to TIA1 = 1000) [3]	total ion current (normalized to TIA1 = 1000) [4]	total ion current (normalized to TIA1 = 1000) [5]	total ion current (normalized to TIA1 = 1000) [6]
Isoform 2 of ATP-dependent 6-phosphofructokinase, muscle type (from UniProt P47857 1-850)	0	62.9	36.3	0	75.8	0
Isoform 2 of Alpha-adducin (from UniProt Q9QYC0 1-632)	0	121	0	0	0	0
Isoform 2 of Beta-adducin (from UniProt Q9QYB8 1-562)	0	346	0	0	32.6	0
Isoform 2 of C-terminal-binding protein 1 (from UniProt O88712 1-430)	0	65.7	49.3	0	26.6	0
Isoform 2 of Clathrin light chain B (from UniProt Q6IRU5 1-211)	3.53	0	0	0	0	0
Isoform 2 of Cytosol aminopeptidase (from UniProt Q9CPY7 1-488)	0	80.5	0	0	28.4	0
Isoform 2 of Focal adhesion kinase 1 (from UniProt P34152 2-1083)	0	0	84.3	0	130	0
Isoform 2 of Gelsolin (from UniProt P13020 1-731)	0	0	0	144	0	0
Isoform 2 of Hepatoma-derived growth factor-related protein 2 (from UniProt Q3UMU9 1-667)	0	282	0	0	97.1	0
Isoform 2 of Heterogeneous nuclear ribonucleoprotein F (from UniProt Q9Z2X1 1-395)	0	42.5	48.2	0	39.6	0
Isoform 2 of Heterogeneous nuclear ribonucleoprotein Q (from UniProt Q7TMK9 2-562)	14.7	249	0	19.8	48.5	0
Isoform 2 of Homer protein homolog 1 (from UniProt Q9Z2Y3 1-370)	0	37.8	137	0	59.6	0
Isoform 2 of MICOS complex subunit Mic60 (from UniProt Q8CAQ8 34-746)	0	64.7	37.6	0	59	0
Isoform 2 of NAD-dependent protein deacetylase sirtuin-2 (from UniProt Q8VDQ8 1-352)	0	175	48.2	0	0	0
Isoform 2 of Paraspeckle component 1 (from UniProt Q8R326 1-466)	0	98.3	0	0	0	239
Isoform 2 of Phosphatidylinositol-binding clathrin assembly protein (from UniProt Q7M6Y3 2-597)	0	20.1	0	0	31.4	0
Isoform 2 of Plasminogen activator inhibitor 1 RNA-binding protein (from UniProt Q9CY58 1-392)	0	136	0	0	99.8	0
Isoform 2 of Protein-L-isoaspartate(D-aspartate)-O-methyltransferase (from UniProt P23506 2-228)	0	98.7	8.56	0	91.6	0
Isoform 2 of Sarcoplasmic/endoplasmic reticulum calcium ATPase 2 (from UniProt O55143 1-998)	0	36.6	0	0	21.5	0
Isoform 2 of Septin-4 (from UniProt P28661 1-459)	0	94.7	75.6	0	52.7	0
Isoform 2 of Sideroflexin-3 (from UniProt Q91V61 1-288)	0	46.1	0	0	43	0
Isoform 2 of Sodium-driven chloride bicarbonate exchanger (from UniProt Q5DTL9 1-1088)	0	269	0	0	0	0
Isoform 4 of Phosphatase and actin regulator 1 (from UniProt Q2M3X8 1-649)	0	48.2	0	0	0	0
Isoform A1-I of V-type proton ATPase 116 kDa subunit a isoform 1 (from UniProt Q9Z1G4 1-838)	0	108	240	0	13	0
Isoform A of Cytosolic acyl coenzyme A thioester hydrolase (from UniProt Q91V12 1-338)	0	372	515	0	190	0
Isoform B of AP-2 complex subunit alpha-1 (from UniProt P17426 1-955)	0	159	68.8	0	248	0
Isoform Beta-II of Protein kinase C beta type (from UniProt P68404 2-673)	0	148	0	0	13	0
